B1: TRIM15 (parent)
chain: QSSGKILLCPLCQEEEQAETPMAP

Our source for the protein stability index values is the supplement of paper PMC10567573.
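Note: lentivirally expressed fusions sorted by FACS into six bins by GFP to DsRed ratio, PSI derived from sequencing read proportions per bin multiplied by bin number.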

The series covers variants of B1. The series is described as follows: protein stability index of a GFP-peptide fusion (GPS, HEK-293T) (PSI 1-6); higher = more stable. The settings on record: c terminus: a fixed tail appended.
Regarding QSSGKILLCPLCQEEEQAETPMRP [A23R], the protein stability index amounted to 2.6.

Regarding QSSGKILLCPLCQEEEQAETPMCP [A23C], the protein stability index amounted to 3.71.

Consider QSSGKILLCPLCQEEEQAETPMQP [A23Q], for which the protein stability index came out at 3.21.

Take QSSGKILLCPLCQEEEQAETPMWP [A23W]: the protein stability index turned out to be 2.91.

For QSSGKILLCPLCQEEEQAETPMHP [A23H], the protein stability index came out at 3.67.

In the case of QSSGKILLCPLCQEEEQAETPMEP [A23E], the protein stability index stood at 4.61.

QSSGKILLCPLCQEEEQAETPMLP [A23L]: the protein stability index was determined as 2.97.

Take QSSGKILLCPLCQEEEQAETPMTP [A23T]: the protein stability index was 3.9.

For QSSGKILLCPLCQEEEQAETPMGP [A23G], the protein stability index came out at 3.52.

For QSSGKILLCPLCQEEEQAETPMKP [A23K], the protein stability index worked out at 3.63.

Turning to QSSGKILLCPLCQEEEQAETPMIP [A23I], the protein stability index stood at 2.86.

As for QSSGKILLCPLCQEEEQAETPMFP [A23F], the protein stability index was found to be 3.25.

For QSSGKILLCPLCQEEEQAETPMNP [A23N], the protein stability index was determined as 3.5.

For QSSGKILLCPLCQEEEQAETPMSP [A23S], the protein stability index turned out to be 3.86.

In the case of QSSGKILLCPLCQEEEQAETPMYP [A23Y], the protein stability index amounted to 2.94.

As to QSSGKILLCPLCQEEEQAEDPMAP [T20D], the protein stability index was determined as 3.66.

For QSSGKILLCPLCQEEEQAEAPMAP [T20A], the protein stability index is 3.65.

QSSGKILLCPLCQEEEQAEGPMAP [T20G]: the protein stability index worked out at 2.49.

QSSGKILLCPLCQEEEQAECPMAP [T20C]: the protein stability index worked out at 3.54.

Turning to QSSGKILLCPLCQEEEQAEWPMAP [T20W], the protein stability index came out at 2.16.

Regarding QSSGKILLCPLCQEEEQAENPMAP [T20N], the protein stability index was found to be 3.4.

Take QSSGKILLCPLCQEEEQAEPPMAP [T20P]: the protein stability index amounted to 3.16.

With QSSGKILLCPLCQEEEQAEIPMAP [T20I], the protein stability index turned out to be 3.5.

With QSSGKILLCPLCQEEEQAERPMAP [T20R], the protein stability index was 3.07.

QSSGKILLCPLCQEEEQAEKPMAP [T20K]: the protein stability index came out at 4.

With QSSGKILLCPLCQEEEQAELPMAP [T20L], the protein stability index worked out at 3.8.

As for QSSGKILLCPLCQEEEQAEQPMAP [T20Q], the protein stability index is 3.5.

In the case of QSSGKILLCPLCQEEEQAEEPMAP [T20E], the protein stability index worked out at 3.92.

Turning to QSSGKILLCPLCQEEEQAEHPMAP [T20H], the protein stability index is 3.46.

Regarding QSSGKILLCPLCQEEEQAESPMAP [T20S], the protein stability index is 3.5.

Consider QSSGKILLCPLCQEEEQAEFPMAP [T20F], for which the protein stability index came to 2.84.

On to QSSGKILLCPLCQEEEQAEYPMAP [T20Y], for which the protein stability index stood at 2.89.

For QSSGKILLCPLCQEEEQAETPFAP [M22F], the protein stability index was found to be 2.86.

Consider QSSGKILLCPLCQEEEQAETPEAP [M22E], for which the protein stability index stood at 4.34.

As for QSSGKILLCPLCQEEEQAETPTAP [M22T], the protein stability index amounted to 4.48.

Take QSSGKILLCPLCQEEEQAETPNAP [M22N]: the protein stability index stood at 3.52.

As to QSSGKILLCPLCQEEEQAETPGAP [M22G], the protein stability index was 4.22.

For QSSGKILLCPLCQEEEQAETPVAP [M22V], the protein stability index came to 2.28.

Take QSSGKILLCPLCQEEEQAETPCAP [M22C]: the protein stability index stood at 5.56.

As for QSSGKILLCPLCQEEEQAETPAAP [M22A], the protein stability index was 3.99.

Take QSSGKILLCPLCQEEEQAETPIAP [M22I]: the protein stability index turned out to be 3.45.

Turning to QSSGKILLCPLCQEEEQAETPLAP [M22L], the protein stability index was 4.28.

Turning to QSSGKILLCPLCQEEEQAETPYAP [M22Y], the protein stability index was 3.08.

Consider QSSGKILLCPLCQEEEQAETPDAP [M22D], for which the protein stability index was determined as 4.14.

On to QSSGKILLCPLCQEEEQAETPKAP [M22K], for which the protein stability index turned out to be 3.16.

QSSGKILLCPLCQEEEQTETPMAP [A18T]: the protein stability index was determined as 3.61.

For QSSGKILLCPLCQEEEQHETPMAP [A18H], the protein stability index worked out at 3.29.

In the case of QSSGKILLCPLCQEEEQEETPMAP [A18E], the protein stability index was found to be 3.34.

Take QSSGKILLCPLCQEEEQSETPMAP [A18S]: the protein stability index was 3.74.

For QSSGKILLCPLCQEEEQPETPMAP [A18P], the protein stability index was found to be 4.04.

On to QSSGKILLCPLCQEEEQMETPMAP [A18M], for which the protein stability index is 3.1.

Regarding QSSGKILLCPLCQEEEQGETPMAP [A18G], the protein stability index is 2.73.

With QSSGKILLCPLCQEEEQYETPMAP [A18Y], the protein stability index worked out at 2.89.

As to QSSGKILLCPLCQEEEQFETPMAP [A18F], the protein stability index came out at 2.19.

For QSSGKILLCPLCQEEEQNETPMAP [A18N], the protein stability index was 3.44.

Turning to QSSGKILLCPLCQEEEQIETPMAP [A18I], the protein stability index worked out at 3.98.

With QSSGKILLCPLCQEEEQDETPMAP [A18D], the protein stability index was 3.76.

QSSGKILLCPLCQEEEQCETPMAP [A18C]: the protein stability index was determined as 3.33.

Regarding QSSGKILLCPLCQEEEQLETPMAP [A18L], the protein stability index came out at 3.25.

For QSSGKILLCPLCQEEEQAETPMAT [P24T], the protein stability index was 3.48.

Turning to QSSGKILLCPLCQEEEQAETPMAK [P24K], the protein stability index is 3.17.

As to QSSGKILLCPLCQEEEQAETPMAM [P24M], the protein stability index is 3.31.

QSSGKILLCPLCQEEEQAETPMAF [P24F]: the protein stability index turned out to be 3.25.

On to QSSGKILLCPLCQEEEQAETPMAE [P24E], for which the protein stability index amounted to 4.29.

Consider QSSGKILLCPLCQEEEQAETPMAC [P24C], for which the protein stability index was 2.47.

Turning to QSSGKILLCPLCQEEEQAETPMAI [P24I], the protein stability index was determined as 3.85.

In the case of QSSGKILLCPLCQEEEQAETPMAG [P24G], the protein stability index was determined as 3.81.

Take QSSGKILLCPLCQEEEQAETPMAD [P24D]: the protein stability index turned out to be 3.79.

With QSSGKILLCPLCQEEEQAETPMAY [P24Y], the protein stability index stood at 2.68.

Take QSSGKILLCPLCQEEEQAETPMAL [P24L]: the protein stability index was found to be 3.09.

On to QSSGKILLCPLCQEEEQAETPMAR [P24R], for which the protein stability index came to 1.71.

Regarding QSSGKILLCPLCQEEEQAETPMAS [P24S], the protein stability index was found to be 3.53.

As to QSSGKILLCPLCQEEEQAETPMAH [P24H], the protein stability index came to 3.88.

For the variant QSSGKILLCPLCQEEEQAETPMAA [P24A], the protein stability index worked out at 4.

As to QSSGKILLCPLCQEEEQAETPMAQ [P24Q], the protein stability index came out at 3.41.

Turning to QSSGKILLCPLCQEEEQAWTPMAP [E19W], the protein stability index was 1.52.

QSSGKILLCPLCQEEEQAGTPMAP [E19G]: the protein stability index stood at 3.09.

Turning to QSSGKILLCPLCQEEEQARTPMAP [E19R], the protein stability index turned out to be 2.99.

Take QSSGKILLCPLCQEEEQAKTPMAP [E19K]: the protein stability index amounted to 3.94.

Turning to QSSGKILLCPLCQEEEQASTPMAP [E19S], the protein stability index came out at 2.51.

QSSGKILLCPLCQEEEQAMTPMAP [E19M]: the protein stability index amounted to 2.19.

QSSGKILLCPLCQEEEQAFTPMAP [E19F]: the protein stability index came out at 2.06.

Consider QSSGKILLCPLCQEEEQAITPMAP [E19I], for which the protein stability index turned out to be 2.77.

On to QSSGKILLCPLCQEEEQAATPMAP [E19A], for which the protein stability index was found to be 3.12.

As for QSSGKILLCPLCQEEEQATTPMAP [E19T], the protein stability index is 3.09.

As to QSSGKILLCPLCQEEEQANTPMAP [E19N], the protein stability index was determined as 2.87.

With QSSGKILLCPLCQEEEQAPTPMAP [E19P], the protein stability index was determined as 2.34.

As to QSSGKILLCPLCQEEEQAQTPMAP [E19Q], the protein stability index came to 2.61.

QSSGKILLCPLCQEEEQAYTPMAP [E19Y]: the protein stability index amounted to 2.96.

QSSGKILLCPLCQEEEQACTPMAP [E19C]: the protein stability index amounted to 2.

QSSGKILLCPLCQEEESAETPMAP [Q17S]: the protein stability index was 3.67.

Take QSSGKILLCPLCQEEETAETPMAP [Q17T]: the protein stability index is 3.63.

For QSSGKILLCPLCQEEEVAETPMAP [Q17V], the protein stability index is 2.82.

For the variant QSSGKILLCPLCQEEEYAETPMAP [Q17Y], the protein stability index was found to be 2.87.
